The chains are these.
B1: 62K98H (antibody, V domains shown)
VH: QITLKESGPTLVKPTQTLTLTCTFSGFSLSTSGVGVGWIRQPPGEALEWLAVIHWNEANYYSPYLRSRLTITKDTSKNQMVLTVTNMDPVDTATYYCARGANSDSSGRLDAFDIWGQGTMVTVSS
VL: DVVMTQSPLSLPVTLGQPASISCRSSQSLIYSDGNTRLYWFHQRPGQSPRRLIYGVSNRDSGVPDRFSGSGSGTDFTLKISRVEAEDVGVYYCMQSTHWPHTFGQGTKLEIK
B2: 85L117H (antibody, V domains shown)
VH: QVQLVQSGAELKRPGSSVKVSCRASGDTFKNYAITWVRQAPGQGLEWVGGIDPLVGVPNYTHRFQGRVTITADEPTSTTYMEFRDLTSDDTAVYYCARGVRDQHWSYFDSWGQGTLVTVSS
VL: QSVLTQPPSASGTPGQTVNISCSGATSNIGGGSVNWYQQLPGAAPRLLIHSDNERASGVPDRFSGSKSGTSASLAISGLQSEDEADYFCASWDDSLDGHVVFGGGTKVTVL
B3: Murine 3F12E7 (antibody, V domains shown)
VH: GELQESGPELVKPGASVKISCKASGYSFTGYYMNWVKHSPEKSLEWIGEINPSTGGTSYNQKFKAKATLTVDKSSTTAYMQLKGLTSEDSAVYYCASGGYYEGFDYWGQGTTVTVSS
VL: DIELTQSPASLSASVGETVTGNIYSYLAWYQQKQGKSPQLLVYDAKTLADGVPSRFTGSGSGTQFSLKINSLQPEDFGSYYCQHFWNTPRTFGGGTKLEIK

Consider 3 molecules from US20260297170 (published 2026).

For the test, the target named is rFGF2 (human, UniProt P09038). The test is described as follows: SPR.
Chain of rFGF2 (P09038 143-288): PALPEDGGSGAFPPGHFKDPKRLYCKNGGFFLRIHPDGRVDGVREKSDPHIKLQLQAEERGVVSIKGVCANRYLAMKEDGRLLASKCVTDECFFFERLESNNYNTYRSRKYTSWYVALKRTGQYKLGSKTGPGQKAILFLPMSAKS
As to B1, the Kd (in general, the constant that tells how readily two partners part at equilibrium) was 9.1 nM. That is a single-digit nanomolar value.

B2 returned a Kd of 17 nM.

Take B3: binding was characterised by a dissociation constant (Kd) of 0.413 nM. This Kd is about 41-fold lower than that of the molecule before.
